Laboratory results reported in article PMC4058522 (2014).
Square brackets hold non-standard residues; d marks the D form. Ends that are not written are not given here. pS = N[C@@H](COP(=O)(O)O)C(=O)O

Target: mouse Pih1 PIH domain Lys 153 charge reversal mutant (mouse, UniProt Q9CQJ2 1-200, Charge reversal of a conserved residue Lys 153)
Assay: ITC

Chain of mouse Pih1 PIH domain Lys 153 charge reversal mutant (Q9CQJ2 other isoform, or with tags, fused parts or gaps Charge reversal of a conserved residue Lys 153 | mutant): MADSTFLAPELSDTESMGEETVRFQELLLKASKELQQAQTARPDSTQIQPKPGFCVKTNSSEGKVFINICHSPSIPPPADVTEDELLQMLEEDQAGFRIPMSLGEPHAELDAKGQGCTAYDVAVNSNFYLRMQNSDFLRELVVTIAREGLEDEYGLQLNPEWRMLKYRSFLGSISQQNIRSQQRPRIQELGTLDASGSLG

Kd: 220 nM
B1: mouse Tel2 484-496 peptide, bis-phosphorylated pSer 488 and pSer 492 (QGSDpSELDpSDDEF) (peptide)
peptide: QGSD[pS]ELD[pS]DDEF
